Data: patent publication US20120073987A1, “ELECT[…] AND APPARATUS OF IDENTIFYING THE PRESENCE OF A TARGET” (priority 2009, published 2012)

Key:
[1] = target: T1, HIV-1 integrase (Human immunodeficiency virus type 1 group M subtype B, UniProt P04585); experiment: Cyclic voltammetry detection of HIV-1 IN binding on peptide-IN-modified Thc-Fc Au microelectrodes
T1 construct: HIV integrase (100 μg, HIV-122, IN) was purchased from ProspecBio (USA); purchased ProspecBio HIV-122
Method: (§1) Au microelectrodes were incubated in 1 mM ethanolic solution of Thc-Fc overnight (˜15 h). The electrodes were rinsed with ethanol and Millipore water (18.2 MΩ.cm). This layer was terminated by the amino-reactive carboxyl moieties that allowed the attachment of the peptides. The carboxyl groups were activated with 2 mM EDC and 5 mM NHS in 50 mM phosphate buffer solution (pH 7.4) for 2 h. The N-terminus of the peptides was attached to the activated carboxyl groups of Thc-Fc to give the final electrode interface. The peptides (1 mM) were incubated with the activated electrodes in 50 mM phosphate buffer solution (pH 7.4) for 2 h on a block-shaker at room temperature. Thus, the peptides were conjugated with the Fc compounds on the surface. The remaining active-esters were quenched by incubating the peptide-modified electrodes in 100 mM ethanolamine solution for 1 h on a block-shaker at room temperature. The peptide-modified electrodes were then incubated in 1 mM hexanethiol solution for 5 min to produce a diluted film and to back-fill the empty spots on the electrode surface. Finally, the electrodes were rinsed with ethanol and Millipore water to give the peptide-modified sensor surfaces. […]

[2] = target: T2, HIV-1 reverse transcriptase (Human immunodeficiency virus type 1 group M subtype B, UniProt P04585); experiment: Cyclic voltammetry detection of HIV-1 RT binding on peptide-RT-modified Thc-Fc Au microelectrodes
T2 construct: HIV-1 reverse transcriptase (200 U, T3610Y, RT) was purchased from GE Healthcare; purchased GE Healthcare T3610Y
Method: as §1

[3] = 100 nM protein solution, n=3 electrodes, FIG. 7

Sequence: YQLLIRMIYKNI [peptide-IN, purchased peptide ligand for HIV-1 IN, immobilised on ferrocene-modified gold electrode]
- electrochemical response to exposure to HIV-1 IN (selectivity) [1, 3]: responded to the exposure of HIV-1 IN
- detection limit for HIV-1 IN ([1]; CV at 100 mV s^-1 in 2 M NaClO4, IN assay buffer pH 7.5): 20 nM

Sequence: VEAIIRILQQLLFIH [peptide-RT, purchased peptide ligand for HIV-1 RT, immobilised on ferrocene-modified gold electrode]
- electrochemical response to exposure to HIV-1 RT (selectivity) [2, 3]: responded to the exposure of HIV-1 RT
- detection limit for HIV-1 RT ([2]; estimated from 3(Sb/m), CV at 100 mV s^-1 in 2 M NaClO4, 1 h incubation in RT assay buffer pH 7.2): 20 nM
